Data as given in PMC3072150 (Biochemistry, 2009).

Columns and labels:
[1] = target: DnaC protein (hexamer assembled on DnaB) in the binary DnaB–DnaC complex (Escherichia coli, UniProt P0AEF0); experiment: fluorescence titration; format: binding
[2] = target: DnaB helicase;DnaC protein (Escherichia coli;Escherichia coli, UniProt P0ACB0;P0AEF0 1-471;1-245, |); experiment: fluorescence titration and sedimentation velocity of cofactor
DnaB helicase = DnaB helicase (Escherichia coli, UniProt P0ACB0 1-471); experiment: fluorescence titration
Chain of DnaB helicase (P0ACB0 whole entry): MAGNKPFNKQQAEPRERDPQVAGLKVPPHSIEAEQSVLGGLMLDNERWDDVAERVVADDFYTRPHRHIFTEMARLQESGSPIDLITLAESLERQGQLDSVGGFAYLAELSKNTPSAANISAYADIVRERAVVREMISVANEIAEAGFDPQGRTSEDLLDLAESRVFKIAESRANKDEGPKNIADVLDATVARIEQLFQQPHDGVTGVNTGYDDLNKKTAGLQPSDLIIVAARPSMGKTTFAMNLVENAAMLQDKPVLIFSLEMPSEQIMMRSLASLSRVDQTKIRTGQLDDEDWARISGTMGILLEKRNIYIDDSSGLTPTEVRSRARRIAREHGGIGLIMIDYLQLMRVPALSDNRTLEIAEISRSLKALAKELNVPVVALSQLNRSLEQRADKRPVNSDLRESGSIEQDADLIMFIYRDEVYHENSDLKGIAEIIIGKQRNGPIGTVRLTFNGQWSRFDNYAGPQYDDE

Chain of DnaB helicase;DnaC protein (P0ACB0 whole entry, chain 1 of 2): as the sequence (P0ACB0 whole entry) above
Chain of DnaB helicase;DnaC protein (P0AEF0 whole entry, chain 2 of 2): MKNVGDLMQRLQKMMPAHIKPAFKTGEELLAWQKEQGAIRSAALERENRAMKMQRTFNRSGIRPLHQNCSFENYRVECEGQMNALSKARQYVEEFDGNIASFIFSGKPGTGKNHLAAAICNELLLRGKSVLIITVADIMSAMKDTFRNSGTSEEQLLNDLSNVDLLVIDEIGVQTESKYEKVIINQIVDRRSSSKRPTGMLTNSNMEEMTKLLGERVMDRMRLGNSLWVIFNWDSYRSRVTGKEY
Chain of DnaC protein (hexamer assembled on DnaB) in the binary DnaB–DnaC complex (P0AEF0 whole entry): as the sequence (P0AEF0 whole entry, chain 2 of 2) above
Chain of DnaC protein (hexamer assembled on DnaB) in the binary DnaB–DnaC complex (P0ACB0 2-471 partner): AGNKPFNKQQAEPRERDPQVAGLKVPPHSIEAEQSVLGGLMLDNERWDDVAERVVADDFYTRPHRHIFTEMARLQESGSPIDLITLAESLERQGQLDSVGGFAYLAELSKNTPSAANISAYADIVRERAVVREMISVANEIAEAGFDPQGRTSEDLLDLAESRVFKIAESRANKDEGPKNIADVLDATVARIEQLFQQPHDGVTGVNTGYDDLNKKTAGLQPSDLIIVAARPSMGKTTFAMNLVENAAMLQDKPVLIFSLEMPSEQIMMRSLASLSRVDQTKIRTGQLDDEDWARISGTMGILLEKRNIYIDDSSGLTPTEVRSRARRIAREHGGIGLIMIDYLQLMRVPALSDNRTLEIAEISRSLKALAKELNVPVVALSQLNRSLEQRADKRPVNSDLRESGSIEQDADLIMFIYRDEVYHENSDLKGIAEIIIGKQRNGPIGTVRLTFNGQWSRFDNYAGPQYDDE

Row | Kd [1] [µM] | Molecule | binding result [2] | binding result (DnaB helicase)
1 | 4.17 | CNc1ccccc1C(=O)O[C@H]1[C@@H](O)[C@H](n2cnc3c(N)ncnc32)O[C@@H]1CO[P@@](=O)(O)O[P@](=O)(O)OP(=O)(O)O [MANT-ATP, 3′-O-(N-methylanthraniloyl)adenosine 5′-triphosphate] | – | –
2 | – | AAAAAAAAAAAAAAAAAAAA (ssDNA) [dA(pdA)19 (ssDNA 20-mer)] | binds | binds
